Residue numbers refer to the chain shown, from its start.
T1: human GIP receptor (human, UniProt P48546 22-466)
T1 construct: whole, on cells; also called hGIPR; human glucose-dependent insulinotropic polypeptide receptor
T1 sequence (looked up): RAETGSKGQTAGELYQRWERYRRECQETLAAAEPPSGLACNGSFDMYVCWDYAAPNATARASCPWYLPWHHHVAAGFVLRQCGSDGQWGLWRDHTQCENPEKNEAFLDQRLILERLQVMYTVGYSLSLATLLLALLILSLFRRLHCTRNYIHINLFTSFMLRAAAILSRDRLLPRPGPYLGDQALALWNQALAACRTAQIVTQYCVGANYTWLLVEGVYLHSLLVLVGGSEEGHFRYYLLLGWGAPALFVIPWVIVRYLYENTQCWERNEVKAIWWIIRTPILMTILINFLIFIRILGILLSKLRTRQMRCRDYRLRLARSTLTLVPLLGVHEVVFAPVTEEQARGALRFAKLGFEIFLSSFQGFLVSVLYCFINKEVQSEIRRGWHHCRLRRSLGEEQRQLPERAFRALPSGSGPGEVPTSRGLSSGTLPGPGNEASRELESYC

B1: Y-Aib-EGT-αMeF(2F)-TSD-4Pal-SI-αMeL-LD-Orn-K((2-[2-(2-Amino-ethoxy)-ethoxy]-acetyl)2-(γ-Glu)-CO-(CH2)14-CH3)AQ-Aib-EFI-(D-Glu)-αMeY-LIEGGK((2-[2-(2-Amino-ethoxy … (peptide)
peptide: YXEGTXTSDXSIXLDXKAQXEFIXXLIEGGKSSGAPPPS
modifications: Aib2, αMeF(2F)6, 4Pal10, αMeL13, Orn16, K17(Z1), Aib20, D-Glu24, αMeY25, K31(Z1), C-term NH2; Z1=AEEA2-(γ-Glu)-CO-(CH2)14-CH3
B2: Y-Aib-EGT-αMeF(2F)-TSD-4Pal-SI-αMeL-LD-Orn-K((2-[2-(2-Amino-ethoxy)-ethoxy]-acetyl)2-(γ-Glu)-CO-(CH2)10-CH3)AQ-Aib-K((2-[2-(2-Amino-ethoxy)-ethoxy]-acetyl)2-(γ- … (peptide)
peptide: B1 peptide with E21K, E28X, K31P
modifications: Aib2, αMeF(2F)6, 4Pal10, αMeL13, Orn16, K17(Z1), Aib20, K21(Z1), D-Glu24, αMeY25, Orn28, C-term NH2; Z1=AEEA2-(γ-Glu)-CO-(CH2)10-CH3
B3: Y-Aib-EGT-αMeF(2F)-TSDK((2-[2-(2-Amino-ethoxy)-ethoxy]-acetyl)2-(γ-Glu)-CO-(CH2)10-CH3)-Aib-I-αMeL-LD-Orn-K((2-[2-(2-Amino-ethoxy)-ethoxy]-acetyl)2-(γ-Glu)-CO-( … (peptide)
peptide: B1 peptide with X10K, S11X, E21X, K31P
modifications: Aib2, αMeF(2F)6, K10(Z1), Aib11, αMeL13, Orn16, K17(Z1), Aib20, Orn21, D-Glu24, αMeY25, C-term NH2; Z1=AEEA2-(γ-Glu)-CO-(CH2)10-CH3
B4: Y-Aib-EGT-αMeF(2F)-TSD-4Pal-Aib-I-αMeL-LD-Orn-K((2-[2-(2-Amino-ethoxy)-ethoxy]-acetyl)2-(γ-Glu)-CO-(CH2)10-CH3)AQ-Aib-Orn-FI-(D-Glu)-αMeY-LIK((2-[2-(2-Amino-eth … (peptide)
peptide: B1 peptide with S11X, E21X, E28K, K31P
modifications: Aib2, αMeF(2F)6, 4Pal10, Aib11, αMeL13, Orn16, K17(Z1), Aib20, Orn21, D-Glu24, αMeY25, K28(Z1), C-term NH2; Z1=AEEA2-(γ-Glu)-CO-(CH2)10-CH3
B5: Y-Aib-EGT-αMeF(2F)-TSD-4Pal-Aib-I-αMeL-LD-Orn-QAQ-Aib-EFIK((2-[2-(2-Amino-ethoxy)-ethoxy]-acetyl)2-(γ-Glu)-(10-(4-carboxyphenoxy)decanoyl))-αMeY-LIK((2-[2-(2-Am … (peptide)
peptide: YXEGTXTSDXXIXLDXQAQXEFIKXLIKGGPSSGAPPPS
modifications: Aib2, αMeF(2F)6, 4Pal10, Aib11, αMeL13, Orn16, Aib20, K24(Z1), αMeY25, K28(Z1), C-term NH2; Z1=AEEA2-(γ-Glu)-(10-(4-carboxyphenoxy)decanoyl)
B6: Y-Aib-EGT-αMeF(2F)-TSDK((2-[2-(2-Amino-ethoxy)-ethoxy]-acetyl)2-(γ-Glu)-CO-(CH2)10-CH3)SI-αMeL-LD-Orn-K((2-[2-(2-Amino-ethoxy)-ethoxy]-acetyl)2-(γ-Glu)-CO-(CH2) … (peptide)
peptide: B1 peptide with X10K, F22X, K31P
modifications: Aib2, αMeF(2F)6, K10(Z1), αMeL13, Orn16, K17(Z1), Aib20, αMeF22, D-Glu24, αMeY25, C-term NH2; Z1=AEEA2-(γ-Glu)-CO-(CH2)10-CH3
B7: Y-Aib-EGT-αMeF(2F)-TSD-4Pal-SI-αMeL-LD-Orn-K((2-[2-(2-Amino-ethoxy)-ethoxy]-acetyl)2-(γ-Glu)-CO-(CH2)10-CH3)AQ-Aib-EFI-(D-Glu)-αMeY-LIEGGK((2-[2-(2-Amino-ethoxy … (peptide)
peptide: B1 peptide
modifications: Aib2, αMeF(2F)6, 4Pal10, αMeL13, Orn16, K17(Z1), Aib20, D-Glu24, αMeY25, K31(Z1), C-term NH2; Z1=AEEA2-(γ-Glu)-CO-(CH2)10-CH3
B8: Y-Aib-EGT-αMeF(2F)-TSD-4Pal-Aib-I-αMeL-LD-Orn-K((2-[2-(2-Amino-ethoxy)-ethoxy]-acetyl)2-(γ-Glu)-CO-(CH2)10-CH3)AQ-Aib-EFI-(D-Glu)-αMeY-LIK((2-[2-(2-Amino-ethoxy … (peptide)
peptide: B5 peptide with Q17K, K24X
modifications: Aib2, αMeF(2F)6, 4Pal10, Aib11, αMeL13, Orn16, K17(Z1), Aib20, D-Glu24, αMeY25, K28(Z1), C-term NH2; Z1=AEEA2-(γ-Glu)-CO-(CH2)10-CH3
B9: Y-Aib-EGT-αMeF(2F)-TSD-4Pal-Aib-I-αMeL-LD-Orn-QAQ-Aib-Orn-FIK((2-[2-(2-Amino-ethoxy)-ethoxy]-acetyl)2-(γ-Glu)-(10-(4-carboxyphenoxy)decanoyl))-αMeY-LIK((2-[2-(2 … (peptide)
peptide: B5 peptide with E21X
modifications: Aib2, αMeF(2F)6, 4Pal10, Aib11, αMeL13, Orn16, Aib20, Orn21, K24(Z1), αMeY25, K28(Z1), C-term NH2; Z1=AEEA2-(γ-Glu)-(10-(4-carboxyphenoxy)decanoyl)
B10: Y-Aib-EGT-αMeF(2F)-TSD-4Pal-Aib-G-αMeL-LD-Orn-QAQ-Aib-Orn-FIK((2-[2-(2-Amino-ethoxy)-ethoxy]-acetyl)2-(γ-Glu)-CO-(CH2)12-CO2H)-αMeY-LIK((2-[2-(2-Amino-ethoxy)-e … (peptide)
peptide: B5 peptide with I12G, E21X
modifications: Aib2, αMeF(2F)6, 4Pal10, Aib11, αMeL13, Orn16, Aib20, Orn21, K24(Z1), αMeY25, K28(Z1), C-term NH2; Z1=AEEA2-(γ-Glu)-CO-(CH2)12-CO2H
notes: G at position 12

Target: T1, human GIP receptor
Experiment: SPA competition vs [125I]-GIP, hGIPR membranes

Binder	Ki
B1	0.0501 nM
B2	0.0131 nM
B3	0.0214 nM
B4	0.0229 nM
B5	0.0375 nM
B6	0.022 nM
B7	0.0309 nM
B8	0.0195 nM
B9	0.0312 nM
B10	0.0539 nM

Target: T2, human glucagon receptor (human, UniProt P47871 26-477)
T2 construct: whole, on cells; also called hGCGR; hGcgR
T2 sequence (P47871 26-477): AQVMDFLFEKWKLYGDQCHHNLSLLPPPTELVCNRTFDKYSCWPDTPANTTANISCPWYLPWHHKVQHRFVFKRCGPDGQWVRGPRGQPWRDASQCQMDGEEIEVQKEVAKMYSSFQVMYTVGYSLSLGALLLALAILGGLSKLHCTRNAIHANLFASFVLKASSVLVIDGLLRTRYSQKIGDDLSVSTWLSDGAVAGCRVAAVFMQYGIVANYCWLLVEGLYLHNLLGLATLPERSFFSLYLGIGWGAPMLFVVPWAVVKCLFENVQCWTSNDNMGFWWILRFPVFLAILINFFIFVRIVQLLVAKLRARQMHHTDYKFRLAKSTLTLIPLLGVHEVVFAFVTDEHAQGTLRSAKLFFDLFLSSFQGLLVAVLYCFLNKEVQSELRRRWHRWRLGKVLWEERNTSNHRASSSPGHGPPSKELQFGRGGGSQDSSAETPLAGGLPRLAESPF
Experiment: SPA competition vs [125I]-Gcg, hGcgR membranes
Experimental: The binding buffer contains 25 mM 4-(2-hydroxyethyl)-1-piperazineethanesulfonic acid (HEPES), pH 7.4, 2.5 mM CaCl₂, 1 mM MgCh, 0.1% (w/v) bacitracin (Research Products), 0.003% (w/v) Polyoxyethylenesorbitan monolaurate (TWEEN®-20), and Roche Complete™ Protease Inhibitors without EDTA. […] Plates are sealed and mixed on a plate shaker (setting 6) for 1 minute and read with a PerkinElmer Trilux MicroBeta® scintillation counter after 12 hours of incubation/settling time at room temperature.
Data are analyzed using four-parameter (curve maximum, curve minimum, IC₅₀, Hill slope) nonlinear regression routines (Genedata Screener, version 12.0.4, Genedata AG, Basal, Switzerland). […] Values for Kᵢ are reported as the geometric mean, with error expressed as the standard error of the mean (SEM) and n is equal to the number of independent replicates (determined in assays performed on different days).

Binder	Ki
B1	1.46 nM
B2	14.3 nM
B3	58.4 nM
B4	33.7 nM
B5	134 nM
B6	23.1 nM
B7	44.8 nM
B8	75.5 nM
B9	131 nM
B10	592 nM

Target: T3, human GLP-1 receptor (human, UniProt P43220 24-463)
T3 construct: whole, on cells; also called hGLP-1R; human glucagon-like peptide-1 receptor
Experiment: SPA competition vs [125I]-GLP-1, hGLP-1R membranes
Method in brief: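 Competition binding in 25 mM HEPES pH 7.4, 2.5 mM CaCl₂, 1 mM MgCl₂, 0.1% bacitracin, 0.003% TWEEN-20, EDTA-free protease inhibitors. IC₅₀ from four-parameter nonlinear fit; Kᵢ given as geometric mean ± SEM, n = independent replicates on different days.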

Binder	Ki
B1	0.362 nM
B2	0.119 nM
B3	0.167 nM
B4	0.194 nM
B5	0.424 nM
B6	0.211 nM
B7	0.154 nM
B8	0.325 nM
B9	0.373 nM
B10	0.386 nM
